In the supplement of paper PMC10065799, “High-throughput profiling of sequence recognition by tyrosine kinases and SH2 domains using bacterial peptide display” (eLife, 2023):

Key:
Fyn = Fyn (UniProt P06241); assay: phosphorylation enrichment, bacterial display (enrichment ratio); higher = better substrate or ligand; peptides without Tyr show the background
c-Src = assay: as above
c-Abl (mouse) = assay: as above
AncSZ = assay: as above
EPHB2 = EPHB2 (UniProt P29323); assay: as above
EPHB1 = EPHB1 (UniProt P54762); assay: as above
FGFR1 = FGFR1 (UniProt P11362); assay: as above
MERTK = MERTK (UniProt Q12866); assay: as above
Jak2 = Jak2 (UniProt O60674); assay: as above
Fer (mouse) = assay: as above
FGFR3 = FGFR3 (UniProt P22607); assay: as above
Hck = Hck (UniProt P08631); assay: as above
Fes = Fes (UniProt P07332); assay: as above
SHP2-C SH2 = assay: SH2 binding enrichment of the phosphorylated peptide, bacterial display (enrichment ratio); higher = better substrate or ligand; peptides without Tyr show the background
Grb2 SH2 = Grb2 SH2 (UniProt P62993); assay: as above
c-Src SH2 = assay: as above
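Throughout, for SH2 binding enrichment of the phosphorylated peptide, bacterial display: peptide library displayed on the E. coli surface as eCPX fusions, selected cells deep-sequenced, score is each peptide's frequency after selection divided by its frequency in the input.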
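Throughout, for phosphorylation enrichment, bacterial display: 11-residue human phosphosite peptides and single-mutation variants displayed on the E. coli surface, counted by deep sequencing, each peptide's frequency after selection divided by its frequency in the unselected input library; frequency after pTyr selection over input frequency; kinase dosed for 20-30% of maximal phosphorylation in three min.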

Chain of EPHB1 (P54762 whole entry, looked up): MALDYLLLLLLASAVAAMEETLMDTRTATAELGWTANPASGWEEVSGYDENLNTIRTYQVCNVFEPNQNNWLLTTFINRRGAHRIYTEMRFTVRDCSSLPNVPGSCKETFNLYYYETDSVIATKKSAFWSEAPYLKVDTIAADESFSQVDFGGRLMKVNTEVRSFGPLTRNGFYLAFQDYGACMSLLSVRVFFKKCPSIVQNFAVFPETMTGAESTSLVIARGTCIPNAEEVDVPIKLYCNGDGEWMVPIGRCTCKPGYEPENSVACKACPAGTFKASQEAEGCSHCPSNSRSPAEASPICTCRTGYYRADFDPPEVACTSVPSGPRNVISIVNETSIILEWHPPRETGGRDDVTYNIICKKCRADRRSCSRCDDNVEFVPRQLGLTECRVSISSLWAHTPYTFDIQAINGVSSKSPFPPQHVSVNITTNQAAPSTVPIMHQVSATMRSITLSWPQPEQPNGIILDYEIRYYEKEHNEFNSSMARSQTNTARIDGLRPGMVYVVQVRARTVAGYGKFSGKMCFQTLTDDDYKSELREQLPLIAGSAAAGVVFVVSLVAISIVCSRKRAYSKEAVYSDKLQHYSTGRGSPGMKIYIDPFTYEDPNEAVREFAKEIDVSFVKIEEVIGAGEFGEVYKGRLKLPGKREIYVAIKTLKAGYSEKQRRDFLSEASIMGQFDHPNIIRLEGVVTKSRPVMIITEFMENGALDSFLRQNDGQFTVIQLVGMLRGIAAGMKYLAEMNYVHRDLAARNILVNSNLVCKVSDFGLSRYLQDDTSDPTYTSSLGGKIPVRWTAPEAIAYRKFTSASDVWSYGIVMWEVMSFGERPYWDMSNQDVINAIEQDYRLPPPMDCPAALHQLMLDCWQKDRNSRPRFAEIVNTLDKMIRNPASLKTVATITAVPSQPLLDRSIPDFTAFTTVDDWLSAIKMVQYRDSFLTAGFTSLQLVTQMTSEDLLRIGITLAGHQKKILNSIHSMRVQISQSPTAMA
Chain of Grb2 SH2 (P62993 whole entry, looked up): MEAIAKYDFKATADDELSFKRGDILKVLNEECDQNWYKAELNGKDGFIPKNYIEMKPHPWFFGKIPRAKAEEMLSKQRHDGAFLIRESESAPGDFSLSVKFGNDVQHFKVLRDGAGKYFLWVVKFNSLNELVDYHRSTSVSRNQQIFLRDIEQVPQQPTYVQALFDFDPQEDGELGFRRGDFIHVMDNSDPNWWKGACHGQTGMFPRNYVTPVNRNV
Chain of FGFR1 (P11362 whole entry, looked up): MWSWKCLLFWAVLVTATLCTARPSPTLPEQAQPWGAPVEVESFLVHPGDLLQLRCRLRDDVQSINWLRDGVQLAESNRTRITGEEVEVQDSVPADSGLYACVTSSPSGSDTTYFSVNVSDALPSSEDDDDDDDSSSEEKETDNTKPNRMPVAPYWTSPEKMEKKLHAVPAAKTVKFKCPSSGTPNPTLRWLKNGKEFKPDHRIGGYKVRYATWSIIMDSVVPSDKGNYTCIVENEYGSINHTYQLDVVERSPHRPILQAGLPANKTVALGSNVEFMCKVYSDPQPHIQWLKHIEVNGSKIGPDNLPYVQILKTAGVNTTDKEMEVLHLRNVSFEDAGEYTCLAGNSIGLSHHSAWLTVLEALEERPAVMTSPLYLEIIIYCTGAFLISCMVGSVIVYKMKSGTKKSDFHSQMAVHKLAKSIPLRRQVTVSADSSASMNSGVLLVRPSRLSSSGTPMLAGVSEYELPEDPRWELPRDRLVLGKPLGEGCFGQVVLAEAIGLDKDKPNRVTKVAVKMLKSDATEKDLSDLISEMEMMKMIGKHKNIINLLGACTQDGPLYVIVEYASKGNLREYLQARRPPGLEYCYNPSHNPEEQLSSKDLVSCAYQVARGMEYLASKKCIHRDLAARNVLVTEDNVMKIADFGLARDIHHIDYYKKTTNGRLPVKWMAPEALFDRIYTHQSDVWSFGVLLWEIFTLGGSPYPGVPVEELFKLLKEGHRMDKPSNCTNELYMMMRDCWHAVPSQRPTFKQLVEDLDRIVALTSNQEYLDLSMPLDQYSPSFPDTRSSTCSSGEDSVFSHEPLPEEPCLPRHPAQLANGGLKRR
Chain of Fyn (P06241 whole entry, looked up): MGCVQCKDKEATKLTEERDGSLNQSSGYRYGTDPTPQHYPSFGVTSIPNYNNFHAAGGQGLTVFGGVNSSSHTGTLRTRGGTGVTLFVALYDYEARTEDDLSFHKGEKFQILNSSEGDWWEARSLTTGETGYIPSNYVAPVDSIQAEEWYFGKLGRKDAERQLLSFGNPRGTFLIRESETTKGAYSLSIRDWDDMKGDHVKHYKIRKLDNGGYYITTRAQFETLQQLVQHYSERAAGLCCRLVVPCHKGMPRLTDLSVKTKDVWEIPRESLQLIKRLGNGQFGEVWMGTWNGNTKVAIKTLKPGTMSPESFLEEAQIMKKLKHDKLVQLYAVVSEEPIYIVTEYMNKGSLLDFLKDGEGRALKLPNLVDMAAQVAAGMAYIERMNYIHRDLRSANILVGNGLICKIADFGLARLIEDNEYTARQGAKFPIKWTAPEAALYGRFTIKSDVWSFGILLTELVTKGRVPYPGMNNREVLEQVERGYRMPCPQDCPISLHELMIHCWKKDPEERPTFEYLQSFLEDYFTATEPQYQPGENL
Chain of Fes (P07332 whole entry, looked up): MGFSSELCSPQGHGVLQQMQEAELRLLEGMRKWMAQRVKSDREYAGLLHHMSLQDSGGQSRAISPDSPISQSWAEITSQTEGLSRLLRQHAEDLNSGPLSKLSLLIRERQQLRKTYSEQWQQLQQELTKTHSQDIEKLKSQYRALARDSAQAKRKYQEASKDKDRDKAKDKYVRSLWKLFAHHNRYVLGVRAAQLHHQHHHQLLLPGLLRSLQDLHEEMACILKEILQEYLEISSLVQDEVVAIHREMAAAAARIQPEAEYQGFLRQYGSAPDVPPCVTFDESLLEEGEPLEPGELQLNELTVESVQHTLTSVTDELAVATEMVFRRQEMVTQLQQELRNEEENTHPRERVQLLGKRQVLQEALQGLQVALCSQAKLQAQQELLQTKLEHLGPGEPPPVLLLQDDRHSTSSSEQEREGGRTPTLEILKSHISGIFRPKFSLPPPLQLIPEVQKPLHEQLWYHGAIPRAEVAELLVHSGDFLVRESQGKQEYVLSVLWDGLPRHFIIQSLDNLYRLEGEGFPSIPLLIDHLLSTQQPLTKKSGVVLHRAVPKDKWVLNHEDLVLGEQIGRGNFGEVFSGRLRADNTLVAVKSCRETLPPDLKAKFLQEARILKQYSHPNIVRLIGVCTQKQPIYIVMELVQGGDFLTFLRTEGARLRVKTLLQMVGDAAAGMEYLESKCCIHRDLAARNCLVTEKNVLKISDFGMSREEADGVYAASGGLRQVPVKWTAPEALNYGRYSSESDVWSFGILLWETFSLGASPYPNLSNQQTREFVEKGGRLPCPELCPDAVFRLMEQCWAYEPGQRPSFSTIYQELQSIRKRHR
Chain of FGFR3 (P22607 whole entry, looked up): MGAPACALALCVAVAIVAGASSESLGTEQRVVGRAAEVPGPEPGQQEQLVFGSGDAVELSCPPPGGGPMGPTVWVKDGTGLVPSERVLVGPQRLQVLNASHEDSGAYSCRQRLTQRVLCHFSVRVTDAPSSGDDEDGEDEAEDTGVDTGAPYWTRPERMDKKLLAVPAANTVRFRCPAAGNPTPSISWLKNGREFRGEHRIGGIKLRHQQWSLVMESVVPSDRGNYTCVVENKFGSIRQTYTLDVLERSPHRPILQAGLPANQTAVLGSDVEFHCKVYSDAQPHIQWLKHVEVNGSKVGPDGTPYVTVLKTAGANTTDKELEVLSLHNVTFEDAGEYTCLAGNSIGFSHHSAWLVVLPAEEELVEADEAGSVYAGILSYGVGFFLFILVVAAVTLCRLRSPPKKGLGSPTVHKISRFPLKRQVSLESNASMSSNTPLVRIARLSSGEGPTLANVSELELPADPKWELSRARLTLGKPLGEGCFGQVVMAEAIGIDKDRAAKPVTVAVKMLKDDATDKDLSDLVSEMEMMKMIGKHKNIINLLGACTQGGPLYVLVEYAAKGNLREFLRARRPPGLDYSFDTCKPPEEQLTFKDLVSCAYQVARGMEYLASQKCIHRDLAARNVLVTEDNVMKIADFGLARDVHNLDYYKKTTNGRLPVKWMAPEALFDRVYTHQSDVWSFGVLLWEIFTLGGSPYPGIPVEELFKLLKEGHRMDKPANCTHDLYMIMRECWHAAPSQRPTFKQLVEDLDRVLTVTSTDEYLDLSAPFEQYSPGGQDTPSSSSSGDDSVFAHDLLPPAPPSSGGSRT
Chain of Hck (P08631 whole entry, looked up): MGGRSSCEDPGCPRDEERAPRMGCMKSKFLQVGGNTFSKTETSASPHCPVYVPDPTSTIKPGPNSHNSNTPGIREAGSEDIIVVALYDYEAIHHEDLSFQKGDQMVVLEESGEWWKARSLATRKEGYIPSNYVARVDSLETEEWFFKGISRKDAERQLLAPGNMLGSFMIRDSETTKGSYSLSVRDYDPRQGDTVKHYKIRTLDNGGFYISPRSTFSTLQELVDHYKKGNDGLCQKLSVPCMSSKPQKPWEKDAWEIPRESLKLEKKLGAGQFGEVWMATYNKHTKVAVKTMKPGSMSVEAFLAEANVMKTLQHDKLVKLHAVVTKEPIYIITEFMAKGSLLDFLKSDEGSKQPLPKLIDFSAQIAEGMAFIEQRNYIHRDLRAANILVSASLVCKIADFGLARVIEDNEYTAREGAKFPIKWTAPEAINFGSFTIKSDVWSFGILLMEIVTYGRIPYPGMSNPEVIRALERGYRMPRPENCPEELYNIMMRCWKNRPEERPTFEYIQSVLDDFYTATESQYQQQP

Sequence	phosphorylation enrichment (Fyn)	phosphorylation enrichment (c-Src)	phosphorylation enrichment (c-Abl (mouse))	phosphorylation enrichment (AncSZ)	phosphorylation enrichment (EPHB2)	phosphorylation enrichment (EPHB1)	phosphorylation enrichment (FGFR1)	phosphorylation enrichment (MERTK)	phosphorylation enrichment (Jak2)	phosphorylation enrichment (Fer (mouse))	phosphorylation enrichment (FGFR3)	phosphorylation enrichment (Hck)	phosphorylation enrichment (Fes)	SH2 binding enrichment (SHP2-C SH2)	SH2 binding enrichment (Grb2 SH2)	SH2 binding enrichment (c-Src SH2)
VIERSYTSADG [DHCR7_Y382_C380R]	0.496	0.419	0.565	0.571	0.478	0.388	0.414	0.395	0.578	0.454	0.466	0.392	0.692	0.564	0.852	1.39
VIGRMYDFHVL [RPF2_Y109_YF]	0.469	0.598	0.573	0.943	0.659	0.556	0.472	3.11	0.804	8.04	0.607	0.6	0.902	1.14	1.05	0.876
VKFLGYPPPEI [KDR_Y357_A352V_YF]	0.443	0.371	0.688	0.692	0.618	0.452	0.398	0.402	0.744	0.427	0.555	0.369	0.974	0.852	0.809	0.523
VKKKLDEEIDQ [CYP17A1_Y329_Y329D]	0.483	0.441	0.693	0.839	0.555	0.505	0.578	0.523	0.782	0.422	0.579	0.488	0.792	0.853	1.03	0.705
VKPENYRRPDI [VHL_Y175_L178P]	0.333	0.436	0.63	0.566	0.468	0.335	0.388	0.371	0.525	0.344	0.526	0.364	0.699	0.647	0.846	0.427
VNTTLYEKFTF [TEK_Y1108_YF]	2.48	2.89	0.976	0.886	0.748	1.1	0.456	4.71	0.891	8.38	0.677	4.13	0.989	0.927	0.95	0.882
VPLATYMRIFK [RPL21_Y30_YF]	0.462	0.486	0.477	0.733	0.425	0.406	0.408	0.35	0.614	0.406	0.501	0.537	0.881	0.546	0.602	0.535
VSNFNYFFHRE [KCNA1_Y413_YF]	0.454	0.445	0.831	1.12	0.509	0.642	0.685	0.45	0.969	0.472	0.885	0.506	1.22	1.39	1.35	0.79
VSRGRYRPEEC [B4GALT4_Y113_Q116E]	0.472	0.562	0.568	0.692	0.51	0.443	0.439	0.614	0.561	0.52	0.524	0.522	0.512	0.465	0.699	0.428
VSTAVYKRFAS [BEST1_Y148_P152A]	0.449	0.555	0.716	0.715	0.647	0.693	0.507	0.489	0.725	0.398	0.48	0.511	0.77	0.681	0.644	0.49
VSVVDYVEPSP [TXNRD2_Y70_A66S]	0.494	0.489	0.576	1.21	0.547	0.595	0.804	0.485	0.725	0.521	0.629	0.565	1.05	0.757	0.888	0.58
VTQEQYELFCE [CBL_Y368_YF]	0.599	0.744	3.12	1.4	0.848	0.86	0.543	0.624	1.54	0.737	0.957	0.646	1.24	0.747	0.943	0.668
VTSLKYSTPPF [BRIP1_Y916_S919P_YF]	0.472	0.436	0.595	0.607	0.493	0.342	0.491	0.457	0.599	0.38	0.517	0.52	0.841	0.56	0.929	0.492
VVFIKYLPEWT [PSEN1_Y240_L235V]	0.335	0.414	0.81	1.01	0.532	0.595	0.424	0.343	1.22	0.538	0.773	0.44	1.23	1.64	1.64	1.04
VVQGLYKSMPK [KBTBD2_Y250]	0.34	0.403	0.492	0.53	0.477	0.386	0.384	0.532	0.516	0.328	0.537	0.438	0.611	0.79	0.752	0.429
WEQELYSQLVF [WAS_Y102_YF]	8.54	6.47	1.81	2.24	11.6	8.61	4.85	8.62	1.38	14.4	4.51	7.88	2.71	0.818	0.876	0.688
WFPSTYVEEDE [VAV3_Y842]	0.51	0.549	0.875	1.43	0.656	0.789	0.636	0.454	1.42	0.638	0.81	0.741	1.5	0.768	0.743	0.941

Sequence	phosphorylation enrichment (Fyn)	phosphorylation enrichment (c-Src)	phosphorylation enrichment (c-Abl (mouse))	phosphorylation enrichment (AncSZ)	phosphorylation enrichment (EPHB2)	phosphorylation enrichment (EPHB1)	phosphorylation enrichment (FGFR1)	phosphorylation enrichment (MERTK)	phosphorylation enrichment (Jak2)	phosphorylation enrichment (Fer (mouse))	phosphorylation enrichment (FGFR3)	phosphorylation enrichment (Hck)	phosphorylation enrichment (Fes)	SH2 binding enrichment (SHP2-C SH2)	SH2 binding enrichment (Grb2 SH2)	SH2 binding enrichment (c-Src SH2)
WGLRSYYETSK [MAGED2_Y448]	0.4	0.298	0.661	0.958	0.549	0.754	0.508	0.298	0.972	0.464	0.733	0.448	1.12	0.775	0.809	1.03
WIPIQYLIISE [NOG_Y222_P223L]	0.474	0.457	0.858	1.2	0.723	0.624	0.58	0.436	1.2	0.666	0.838	0.573	1.43	1.12	1.21	0.923
WKEIEYEVVPD [CPS1_Y634_R638P]	0.483	0.479	0.639	1.43	0.961	0.636	0.7	0.494	1.18	0.554	0.774	0.559	1.18	0.861	0.837	0.48
WPQKLYNNFVN [MYO5C_Y526_L522P]	0.439	0.626	0.687	0.795	0.546	0.407	0.445	0.505	0.725	0.377	0.518	0.528	0.884	0.668	1.11	0.59
WSFNLYDINKD [KCNIP3_Y174_A170S]	1.07	0.88	0.68	1.36	0.875	0.894	0.566	0.796	1.12	1.01	0.819	1.29	1.45	0.676	0.676	0.469
WVYNHYRCIIW [BRCA2_Y2624_W2626C]	0.515	0.481	1.18	1.28	0.645	0.806	0.562	0.659	1.4	0.569	0.891	0.538	1.63	1	0.94	0.58
YAFQLYDLDPD [CHP2_Y123_R127P]	4.7	5	0.78	1.66	0.998	1.52	1.65	2.01	1.32	0.916	1.37	2.56	1.37	1.71	0.986	1.28
YDEYRYRSFIK [CFTR_Y517_V520F]	2.33	1.62	0.957	1.06	0.596	0.54	0.495	0.518	1.14	0.64	0.679	1.51	0.946	0.849	0.901	1.21
YEREQYADRAR [RBM4_Y355]	0.37	0.338	0.531	0.701	0.432	0.383	0.495	0.29	0.575	0.441	0.534	0.439	0.707	0.727	0.881	0.591
YETDYYQKGGK [INSR_Y1190_R1191Q]	0.519	0.459	0.526	1.34	0.615	0.63	0.983	0.664	0.716	0.573	0.907	0.639	0.919	1.16	0.863	1.1
YETSHYPASPD [CTNND2_Y1217]	0.434	0.489	0.528	0.858	0.512	0.382	0.454	0.42	0.7	0.484	0.626	0.421	0.771	0.723	0.739	0.76
YGAHNHHPLPV [OAT_Y55_Y55H]	0.415	0.506	0.671	0.538	0.38	0.413	0.408	0.516	0.62	0.693	0.473	0.458	0.696	1.05	0.963	0.919
YKTPIYPYLLP [PLD2_Y578_T577I]	0.787	0.707	0.899	1.14	0.744	0.816	2.43	2.08	1.51	0.695	1.53	0.628	0.857	1.04	0.953	2.4
YSMGCYEIYLG [HMGCL_Y198_S201Y]	6.34	5.79	1.37	4.43	8.68	4.78	2.06	4.69	1.41	5.57	2.19	4.95	2.02	0.641	0.713	0.627
YSTDCYRVGGH [NTRK2_Y707_Y706C]	0.438	0.415	0.79	0.733	0.555	0.554	0.594	3.67	0.639	0.414	0.683	0.45	0.827	0.735	0.891	0.896
YVGGFYGGCNE [CTSC_Y352]	0.864	0.786	0.869	1.17	0.553	0.54	0.639	0.682	1.06	0.786	0.962	0.984	1.14	0.651	0.77	1.23
